Experimental data taken from US20250230211A1 (NANTCELL, published 2025).

Key:
murine CTLA4 = target: T1, murine CTLA4 (murine, UniProt P09793 36-161, limits assumed); test: SPR, antibody captured by anti-human IgG Fc, analyte by OneStep injection at 40 nM and 20 nM
T1 construct: also called Mouse CTLA4
Protocol: (§1) Surface plasmon resonance (SPR) studies were conducted with the purified fusion proteins to assess their binding affinities to relevant targets. The SPR kinetic assay was performed by immobilizing rabbit α-human IgG Fc antibodies (Thermo) on a PCH sensor (Sartorius) as the capture molecule. All molecules of interest were then captured on the sensor surface by α-IgG1-Fc and Fc domain interaction. Binding kinetics against IL-2Rβ, human CTLA4, and murine CTLA4 were determined by OneStep injection at 40 nM and 20 nM of each analyte. […] The αCTLA4-scFv has higher affinity to CTLA4 than when the binding domain is in IgG form.

human CTLA4 = target: T2, human CTLA4 (human, UniProt P16410 36-161); test: as above
T2 sequence (looked up): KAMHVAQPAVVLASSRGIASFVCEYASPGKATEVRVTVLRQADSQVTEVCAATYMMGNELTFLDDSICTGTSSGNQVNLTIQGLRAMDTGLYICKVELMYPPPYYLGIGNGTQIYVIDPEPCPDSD
Protocol: as §1

Kd (murine CTLA4): 0.13 to 2.1 nM | Kd (human CTLA4): 1.1 to 1.6 nM
B1: αCTLA4-7 (antibody, human IgG1, kappa, V domains shown)
VH: EVQLVESGGGLVQPGGSLRLSCAASGFTFTSYSMHWVRQAPGKGLEWVSGISGSGRSTSYADSVKGRFTISRDNSKNTLYLQMNSLRAEDTAVYYCARDLMAFNLVRAGGFDVWGQGTLVTVSS
VL: DIQMTQSPSSLSASVGDRVTITCQASQDISNYLNWYQQKPGKAPKLLIYDASNLETGVPSRFSGSGSGTDFTFTISSLQPEDIATYYCQQGDAWPWTFGQGTKVEIKR
